Here are results for five molecules from PMC6239178, “The binding of Class II sRNA MgrR to two different sites on matchmaker protein Hfq enables efficient competition for Hfq and annealing to regulated mRNAs”.

Data set [1] addresses T1, Hfq wt (Escherichia coli, UniProt P0A6X3 1-102). In words: filter binding; 32P-A27 complex displaced by MgrR; HBB buffer (composition not in material); competition and dissociation at RT; Kd gelshift 0.1 nM 32P-MgrR, 2 h RT, 5% native gel in TBM (89 mM Tris, 89 mM borat). Particulars: protein: recombinant; pET15b); chain copies: 6; label: 32P or unlabeled; single-stranded.

Data set [2] addresses T1, Hfq wt. In words: EMSA; ternary complex with MgrR, annealing not markedly affected; HBB buffer (composition not in material); competition and dissociation at RT; Kd gelshift 0.1 nM 32P-MgrR, 2 h RT, 5% native gel in TBM (89 mM Tris, 89 mM borat). Particulars: protein: recombinant; pET15b); chain copies: 6.
Data set [3] deals with T1, Hfq wt. In words: EMSA; ternary complex with MgrR, unaffected; HBB buffer (composition not in material); competition and dissociation at RT; Kd gelshift 0.1 nM 32P-MgrR, 2 h RT, 5% native gel in TBM (89 mM Tris, 89 mM borat). Particulars: protein: recombinant; pET15b); chain copies: 6. For orientation: In EMSA bound probe runs differently from free probe, usually more slowly.

The target in data set [4] is T1, Hfq wt. In words: filter binding; 32P-U18 complex displaced by MgrR; HBB buffer (composition not in material); competition and dissociation at RT; Kd gelshift 0.1 nM 32P-MgrR, 2 h RT, 5% native gel in TBM (89 mM Tris, 89 mM borat). Particulars: protein: recombinant; pET15b); chain copies: 6; label: 32P or unlabeled; single-stranded.

Residue numbers refer to the chain shown, from its start.

T1 sequence (P0A6X3 whole entry): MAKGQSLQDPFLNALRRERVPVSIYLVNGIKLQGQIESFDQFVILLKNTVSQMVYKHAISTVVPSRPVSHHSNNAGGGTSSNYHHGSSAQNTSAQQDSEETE

B1: A27 (ssRNA)
RNA: AAAAAAAAAAAAAAAAAAAAAAAAAAA
Take B1: the binding result with Hfq wt [1] is “binds”.

B2: eptB133_AU1_v1 (structured_RNA)
RNA: GCGCGUGUAGACCGCACUUAUCUGACUACCUCCGCACUUUUUCCCUGCCGGGCCUGAAAAGCCACUAAGCAGGGUGUUAUCACCUGUUUGUCCAGGGUUUGUUUGCAUGAGAUACAUCAAAUCGAUUACACAG
Consider B2, for which the binding result in the data set with Hfq wt [2] was “binds”.

B3: eptB133_AU1_v2 (structured_RNA)
RNA: B2 RNA with A11U, C12U, C13U, G14U, C15U, A16U, A20U
For B3, the binding result in the data set with Hfq wt [2] is reported as “binds”.

B4: ygdQ145_AU3 (structured_RNA)
RNA: GCUUCAUUUUUUUGGCAGGGCUUUUUAGAUGUUAUUUGCAUGGAUAACCGAUCCUAACGCCUGGCUUGCGCUCGGUACGCUGACGCUGCUGGAGAUCGUUCUUGGGAUCGACAAUGUGCUGGUCCUCUCUCUGGUGGUGGCAAAG
Regarding B4, the binding result with Hfq wt [3] is recorded as “binds”.

B5: U18 (ssRNA)
RNA: UUUUUUUUUUUUUUUUUU
Take B5: the binding result with Hfq wt [4] is listed as “binds”.
